Substrate in series [1]: Nc1ccc(C(=O)NCC(=O)O)cc1
Nature of the series: TP_TRANSPORTER: uptake in membrane vesicle from MRP1-expressing HeLa cells. Format: functional, cell membranes.

Substrate in series [2]: Nc1ccc(C(=O)NCC(=O)O)cc1
Nature of the series: TP_TRANSPORTER: uptake in membrane vesicles from MRP2-expressing HEK cells. Format: functional, cell membranes, HEK293, Membrane vesicle.

This passage reports Km results from ChEMBL document CHEMBL2074311, “ATP-dependent para-aminohippurate transport by apical multidrug resistance protein MRP2” (Kidney Int, 2000).

B1: Multidrug resistance-associated protein 1 (Homo sapiens) (protein)
chain: MALRGFCSADGSDPLWDWNVTWNTSNPDFTKCFQNTVLVWVPCFYLWACFPFYFLYLSRHDRGYIQMTPLNKTKTALGFLLWIVCWADLFYSFWERSRGIFLAPVFLVSPTLLGITMLLATFLIQLERRKGVQSSGIMLTFWLVALVCALAILRSKIMTALKEDAQVDLFRDITFYVYFSLLLIQLVLSCFSDRSPLFSETIHDPNPCPESSASFLSRITFWWITGLIVRGYRQPLEGSDLWSLNKEDTSEQVVPVLVKNWKKECAKTRKQPVKVVYSSKDPAQPKESSKVDANEEVEALIVKSPQKEWNPSLFKVLYKTFGPYFLMSFFFKAIHDLMMFSGPQILKLLIKFVNDTKAPDWQGYFYTVLLFVTACLQTLVLHQYFHICFVSGMRIKTAVIGAVYRKALVITNSARKSSTVGEIVNLMSVDAQRFMDLATYINMIWSAPLQVILALYLLWLNLGPSVLAGVAVMVLMVPVNAVMAMKTKTYQVAHMKSKDNRIKLMNEILNGIKVLKLYAWELAFKDKVLAIRQEELKVLKKSAYLSAVGTFTWVCTPFLVALCTFAVYVTIDENNILDAQTAFVSLALFNILRFPLNILPMVISSIVQASVSLKRLRIFLSHEELEPDSIERRPVKDGGGTNSITVRNATFTWARSDPPTLNGITFSIPEGALVAVVGQVGCGKSSLLSALLAEMDKVEGHVAIKGSVAYVPQQAWIQNDSLRENILFGCQLEEPYYRSVIQACALLPDLEILPSGDRTEIGEKGVNLSGGQKQRVSLARAVYSNADIYLFDDPLSAVDAHVGKHIFENVIGPKGMLKNKTRILVTHSMSYLPQVDVIIVMSGGKISEMGSYQELLARDGAFAEFLRTYASTEQEQDAEENGVTGVSGPGKEAKQMENGMLVTDSAGKQLQRQLSSSSSYSGDISRHHNSTAELQKAEAKKEETWKLMEADKAQTGQVKLSVYWDYMKAIGLFISFLSIFLFMCNHVSALASNYWLSLWTDDPIVNGTQEHTKVRLSVYGALGISQGIAVFGYSMAVSIGGILASRCLHVDLLHSILRSPMSFFERTPSGNLVNRFSKELDTVDSMIPEVIKMFMGSLFNVIGACIVILLATPIAAIIIPPLGLIYFFVQRFYVASSRQLKRLESVSRSPVYSHFNETLLGVSVIRAFEEQERFIHQSDLKVDENQKAYYPSIVANRWLAVRLECVGNCIVLFAALFAVISRHSLSAGLVGLSVSYSLQVTTYLNWLVRMSSEMETNIVAVERLKEYSETEKEAPWQIQETAPPSSWPQVGRVEFRNYCLRYREDLDFVLRHINVTINGGEKVGIVGRTGAGKSSLTLGLFRINESAEGEIIIDGINIAKIGLHDLRFKITIIPQDPVLFSGSLRMNLDPFSQYSDEEVWTSLELAHLKDFVSALPDKLDHECAEGGENLSVGQRQLVCLARALLRKTKILVLDEATAAVDLETDDLIQSTIRTQFEDCTVLTIAHRLNTIMDYTRVIVLDKGEIQEYGAPSDLLQQRGLFYSMAKDAGLV
On to B1, for which the Km in series [1] amounted to 372 µM.

B2: ATP-binding cassette sub-family C member 2 (Homo sapiens) (protein)
chain: MLEKFCNSTFWNSSFLDSPEADLPLCFEQTVLVWIPLGYLWLLAPWQLLHVYKSRTKRSSTTKLYLAKQVFVGFLLILAAIELALVLTEDSGQATVPAVRYTNPSLYLGTWLLVLLIQYSRQWCVQKNSWFLSLFWILSILCGTFQFQTLIRTLLQGDNSNLAYSCLFFISYGFQILILIFSAFSENNESSNNPSSIASFLSSITYSWYDSIILKGYKRPLTLEDVWEVDEEMKTKTLVSKFETHMKRELQKARRALQRRQEKSSQQNSGARLPGLNKNQSQSQDALVLEDVEKKKKKSGTKKDVPKSWLMKALFKTFYMVLLKSFLLKLVNDIFTFVSPQLLKLLISFASDRDTYLWIGYLCAILLFTAALIQSFCLQCYFQLCFKLGVKVRTAIMASVYKKALTLSNLARKEYTVGETVNLMSVDAQKLMDVTNFMHMLWSSVLQIVLSIFFLWRELGPSVLAGVGVMVLVIPINAILSTKSKTIQVKNMKNKDKRLKIMNEILSGIKILKYFAWEPSFRDQVQNLRKKELKNLLAFSQLQCVVIFVFQLTPVLVSVVTFSVYVLVDSNNILDAQKAFTSITLFNILRFPLSMLPMMISSMLQASVSTERLEKYLGGDDLDTSAIRHDCNFDKAMQFSEASFTWEHDSEATVRDVNLDIMAGQLVAVIGPVGSGKSSLISAMLGEMENVHGHITIKGTTAYVPQQSWIQNGTIKDNILFGTEFNEKRYQQVLEACALLPDLEMLPGGDLAEIGEKGINLSGGQKQRISLARATYQNLDIYLLDDPLSAVDAHVGKHIFNKVLGPNGLLKGKTRLLVTHSMHFLPQVDEIVVLGNGTIVEKGSYSALLAKKGEFAKNLKTFLRHTGPEEEATVHDGSEEEDDDYGLISSVEEIPEDAASITMRRENSFRRTLSRSSRSNGRHLKSLRNSLKTRNVNSLKEDEELVKGQKLIKKEFIETGKVKFSIYLEYLQAIGLFSIFFIILAFVMNSVAFIGSNLWLSAWTSDSKIFNSTDYPASQRDMRVGVYGALGLAQGIFVFIAHFWSAFGFVHASNILHKQLLNNILRAPMRFFDTTPTGRIVNRFAGDISTVDDTLPQSLRSWITCFLGIISTLVMICMATPVFTIIVIPLGIIYVSVQMFYVSTSRQLRRLDSVTRSPIYSHFSETVSGLPVIRAFEHQQRFLKHNEVRIDTNQKCVFSWITSNRWLAIRLELVGNLTVFFSALMMVIYRDTLSGDTVGFVLSNALNITQTLNWLVRMTSEIETNIVAVERITEYTKVENEAPWVTDKRPPPDWPSKGKIQFNNYQVRYRPELDLVLRGITCDIGSMEKIGVVGRTGAGKSSLTNCLFRILEAAGGQIIIDGVDIASIGLHDLREKLTIIPQDPILFSGSLRMNLDPFNNYSDEEIWKALELAHLKSFVASLQLGLSHEVTEAGGNLSIGQRQLLCLGRALLRKSKILVLDEATAAVDLETDNLIQTTIQNEFAHCTVITIAHRLHTIMDSDKVMVLDNGKIIECGSPEELLQIPGPFYFMAKEAGIENVNSTKF
As to B2, in series [2], the Km came out at 880 µM.
